Several values for one entry are separate records, joined by “and”; a condition that tells them apart may be missing. Identical values can stand only once. Like-named read-outs stand apart in the source and are kept apart here.
Tests used:
Assay in all cases: cryo-EM structure
[1] = target: B41 HT2 soluble Env heterotrimer (two B41 SOSIP.664 protomers, one D7324-tagged B41-D368R SOSIP.664 protomer) (HIV-1 (clade B, B41))
[2] = target: BG505 HT1 soluble Env heterotrimer (two BG505-D368R SOSIP.664 protomers, one D7324-tagged BG505 SOSIP.664 protomer) (HIV-1 (clade A, BG505))
[3] = target: BG505 HT2 soluble Env heterotrimer (two BG505 SOSIP.664 protomers, one D7324-tagged BG505-D368R SOSIP.664 protomer) (HIV-1 (clade A, BG505))
[4] = target: BG505 HT1 soluble Env heterotrimer (two BG505-D368R SOSIP.664 protomers, one D7324-tagged BG505 SOSIP.664 protomer) (HIV-1 (clade A, BG505)); remark: listed apart in the source
[5] = target: BG505 HT2 soluble Env heterotrimer (two BG505 SOSIP.664 protomers, one D7324-tagged BG505-D368R SOSIP.664 protomer) (HIV-1 (clade A, BG505)); remark: listed apart in the source

| Substance | stoichiometry N [1] | stoichiometry N [2] | stoichiometry N [3] | stoichiometry N [4] | stoichiometry N [5] |
| --- | --- | --- | --- | --- | --- |
| CD4 (as used in the cryo-EM complex with B41 HT2; version not stated) (from UniProt P01730 26-396) (receptor) | 2 | – | – | – | – |
| CD4 D1-D4 (domains 1-4), soluble (receptor) | – | 3 | 3 | 1 | 2 and 1 |

From PMC10686819
